The chains are these.
B4: CBP20 (NCBP2), human (natural protein)
chain: MSGGLLKALRSDSYVELSQYRDQHFRGDNEEQEKLLKKSCTLYVGNLSFYTTEEQIYELFSKSGDIKKIIMGLDKMKKTACGFCFVEYYSRADAENAMRYINGTRLDDRIIRTDWDAGFKEGRQYGRGRSGGQVRDEYRQDYDAGRGGYGKLAQNQ

Data set [1] concerns the target ARS2^147-871 (human). Put plainly: ITC. (In general: ITC needs no label: the signal is the heat of the interaction.)
Data set [2] has as its target PHAX^1-18 peptide (ARM 9-EDGQL), biotinylated (human) (UniProt Q9H814). Put plainly: BLI.
Data set [3] deals with ZC3H18 double ARM motif peptide, biotinylated (human). Description: BLI.
Data set [4] concerns the target T1, nuclear cap-binding complex (CBC: CBP80ΔNLS + CBP20), human (human, UniProt Q09161 20-790; P52298 1-156).
T1 sequence 1: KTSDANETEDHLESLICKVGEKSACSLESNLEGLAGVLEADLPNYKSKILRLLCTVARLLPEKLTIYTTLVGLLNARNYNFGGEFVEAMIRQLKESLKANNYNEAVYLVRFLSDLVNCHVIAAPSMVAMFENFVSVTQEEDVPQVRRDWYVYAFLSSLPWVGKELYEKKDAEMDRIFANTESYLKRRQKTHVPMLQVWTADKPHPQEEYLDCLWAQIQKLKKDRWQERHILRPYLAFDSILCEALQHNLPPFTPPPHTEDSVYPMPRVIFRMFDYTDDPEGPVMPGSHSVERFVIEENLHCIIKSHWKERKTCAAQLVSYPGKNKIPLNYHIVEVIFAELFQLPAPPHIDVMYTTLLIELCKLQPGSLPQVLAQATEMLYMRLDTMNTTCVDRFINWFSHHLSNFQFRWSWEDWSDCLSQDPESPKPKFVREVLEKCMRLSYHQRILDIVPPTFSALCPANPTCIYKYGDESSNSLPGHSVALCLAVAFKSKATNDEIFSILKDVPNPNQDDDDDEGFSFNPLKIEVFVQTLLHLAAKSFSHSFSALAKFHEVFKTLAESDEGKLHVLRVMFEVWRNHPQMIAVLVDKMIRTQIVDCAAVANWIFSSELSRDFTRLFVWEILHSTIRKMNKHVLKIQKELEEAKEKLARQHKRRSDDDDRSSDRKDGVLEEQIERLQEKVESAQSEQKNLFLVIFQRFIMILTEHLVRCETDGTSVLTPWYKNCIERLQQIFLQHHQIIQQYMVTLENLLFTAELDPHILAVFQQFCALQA
T1 sequence 2: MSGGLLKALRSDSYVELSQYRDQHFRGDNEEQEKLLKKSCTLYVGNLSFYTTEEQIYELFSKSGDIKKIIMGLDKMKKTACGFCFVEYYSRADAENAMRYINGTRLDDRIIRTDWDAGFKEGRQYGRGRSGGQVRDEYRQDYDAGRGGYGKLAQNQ
Put plainly: ITC.

Data set [5] addresses T1, nuclear cap-binding complex (CBC: …). Put plainly: pull-down.
The target in data set [6] is CBP80 (delta NLS);CBP20;PHAX (human;human;human, UniProt Q09161;P52298;Q9H814 20-790;1-156;1-394, del1-19||). Put plainly: cryo-EM.
Sequence of CBP80 (delta NLS);CBP20;PHAX (Q9H814 whole entry, stated change not applied, one chain of several): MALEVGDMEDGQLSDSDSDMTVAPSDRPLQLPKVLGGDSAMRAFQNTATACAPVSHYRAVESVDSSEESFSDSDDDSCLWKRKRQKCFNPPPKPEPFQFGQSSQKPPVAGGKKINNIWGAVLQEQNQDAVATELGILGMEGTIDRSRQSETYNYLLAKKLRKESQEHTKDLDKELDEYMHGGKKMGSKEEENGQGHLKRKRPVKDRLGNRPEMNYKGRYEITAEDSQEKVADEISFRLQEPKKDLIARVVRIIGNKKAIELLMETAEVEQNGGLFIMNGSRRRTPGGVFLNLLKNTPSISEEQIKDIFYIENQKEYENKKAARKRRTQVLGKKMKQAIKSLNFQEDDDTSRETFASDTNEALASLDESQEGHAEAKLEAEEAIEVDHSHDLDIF
Data set [7] has as its target ARS2^147-871 (human). Put plainly: ITC. The source holds these as a separate data set.
In another data set the target is full-length PHAX (human, UniProt Q9H814 1-394). Put plainly: cryo-EM structure.
Sequence of full-length PHAX (human, UniProt Q9H814 1-394) (Q9H814 whole entry): as the sequence (Q9H814 whole entry, stated change not applied, one chain of several) above
The next data set has as its target T2, CBP80ΔNLS (NCBP1), human (human, UniProt Q09161 20-790).
T2 sequence (looked up): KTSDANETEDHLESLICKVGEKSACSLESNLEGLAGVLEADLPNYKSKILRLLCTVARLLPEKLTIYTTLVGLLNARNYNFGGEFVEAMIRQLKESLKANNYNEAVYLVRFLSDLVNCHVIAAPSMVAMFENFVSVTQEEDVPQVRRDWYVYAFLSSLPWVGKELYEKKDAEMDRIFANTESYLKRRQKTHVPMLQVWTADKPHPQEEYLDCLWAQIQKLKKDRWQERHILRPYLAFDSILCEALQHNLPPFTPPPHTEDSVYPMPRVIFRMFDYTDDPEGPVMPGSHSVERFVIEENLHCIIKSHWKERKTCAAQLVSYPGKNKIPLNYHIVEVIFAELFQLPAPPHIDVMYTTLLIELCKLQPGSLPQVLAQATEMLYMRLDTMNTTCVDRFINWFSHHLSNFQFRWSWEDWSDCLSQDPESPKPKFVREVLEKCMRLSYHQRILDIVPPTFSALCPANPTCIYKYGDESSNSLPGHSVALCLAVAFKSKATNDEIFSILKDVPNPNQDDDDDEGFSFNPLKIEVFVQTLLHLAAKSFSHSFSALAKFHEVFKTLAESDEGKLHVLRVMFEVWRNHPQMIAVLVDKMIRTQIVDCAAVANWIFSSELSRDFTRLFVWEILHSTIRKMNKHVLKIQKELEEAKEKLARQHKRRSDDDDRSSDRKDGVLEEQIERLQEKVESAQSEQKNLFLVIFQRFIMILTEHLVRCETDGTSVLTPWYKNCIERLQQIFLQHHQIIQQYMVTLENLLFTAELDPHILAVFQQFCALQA
Description: cryo-EM structure.

For data set [8], the target named is T1, nuclear cap-binding complex (CBC: …). Description: ITC. This is another data set of the same source.
The target is the same in data set [9]. Put plainly: ITC. This is another data set of the same source.
The target in the data set “CBP20 (NCBP2), human” is B4. Put plainly: cryo-EM structure.
Data set [10] deals with T1, nuclear cap-binding complex (CBC: …). Description: SPR. Background: In SPR one partner is held on a chip, and binding of the other changes the refractive index at the surface.

Read-outs that look alike come from different tables or passages of the source.

Usually Kd stands for a measure of binding affinity in units of concentration. The molecule “full-length PHAX (from UniProt Q9H814 1-394) (natural protein)” returned a Kd with ARS2^147-871 (human) [1] of 4100 nM.
For ARS2^147-871 (domain or fragment), the Kd was determined as 6100 nM in [2] and 7700 nM in data set [3].
On to TKKVDHRAPGAEEDDSELQRAWGALIKEKEQSRQKKSR (domain or fragment, human, UniProt Q53F19 560-597, looked up) [NCBP3^560-620 with C-terminal residues 598-620 removed], for which the Kd in [4] was 222 nM.

B1: NELF-E^244-380 (domain or fragment, human, UniProt P18615 244-380, looked up)
chain: GPFRRSDSFPERRAPRKGNTLYVYGEDMTPTLLRGAFSPFGNIIDLSMDPPRNCAFVTYEKMESADQAVAELNGTQVESVQLKVNIARKQPMLDAATGKSVWGSLAVQNSPKGCHRDKRTQIVYSDDVYKENLVDGF
For B1, the Kd in data set [4] is 113 nM.

B2: NELF-E^244-380 (W345E) (domain or fragment, human, UniProt P18615 244-380, looked up)
chain: GPFRRSDSFPERRAPRKGNTLYVYGEDMTPTLLRGAFSPFGNIIDLSMDPPRNCAFVTYEKMESADQAVAELNGTQVESVQLKVNIARKQPMLDAATGKSVEGSLAVQNSPKGCHRDKRTQIVYSDDVYKENLVDGF
With B2, the Kd in data set [4] came out at 1300 nM.

B3: His-MBP-NCBP3^360-620 (domain or fragment, human, UniProt Q53F19 360-620, looked up)
chain: DQDMDADDRVVVEYHEELPALKQPRERSASRRSSASSSDSDEMDYDLELKMISTPSPKKSMKMTMYADEVESQLKNIRNSMRADSVSSSNIKNRIGNKLPPEKFADVRHLLDEKRQHSRPRPPVSSTKSDIRQRLGKRPHSPEKAFSSNPVVRREPSSDVHSRLGVPRQDSKGLYADTREKKSGNLWTRLGSAPKTKEKNTKKVDHRAPGAEEDDSELQRAWGALIKEKEQSRQKKSRLDNLPSLQIEVSRESSSGSEAES
For the molecule B3, the binding result in [5] is “binds”.
Turning to TKKVDHRAPGAEEDDSELQRAWGALIKEKEQ (domain or fragment, human, UniProt Q53F19 560-590, looked up) [NCBP3^560-620 truncated to residue 590], in data set [4], the Kd came out at 6000 nM.
Take AAUCUAUAAUAG (ssRNA, 5' m7Gppp cap) [capped 12-mer RNA (m7Gppp-AAUCUAUAAUAG)]: in data set [6], the binding result is reported as “binds”.
In turn, KESLEAAKEKKKEDDDGEIDDGEIDDDDLEEGEVKDPSD (domain or fragment) [MBP-ZC3H18^177-215] came in with a dissociation constant Kd with ARS2^147-871 (human) [7] of 3500 nM.
Regarding B4, the binding result with full-length PHAX is reported as “binds”; in the data set with CBP80ΔNLS (NCBP1), human, “binds”.

B5: MBP-ZC3H18^117-258 (domain or fragment)
chain: SSVTRELDEHELDYDEEVPEEPAPAVQEDEAEKAGAEDDEEKGEGTPREEGKAGVQSVGEKESLEAAKEKKKEDDDGEIDDGEIDDDDLEEGEVKDPSDRKVRPRPTCRFFMKGNCTWGMNCRFIHPGVNDKGNYSLITKAD
On to B5, for which the Kd with ARS2^147-871 (human) [7] amounted to 700 nM.

B6: His-MBP-NCBP3^560-620 (domain or fragment, human, UniProt Q53F19 560-620, looked up)
chain: TKKVDHRAPGAEEDDSELQRAWGALIKEKEQSRQKKSRLDNLPSLQIEVSRESSSGSEAES
Regarding B6, the Kd is ~115 nM in [8] and ~173 nM in [9].

B7: NCBP3^560-620 (tag cleaved, cryo-EM sample) (domain or fragment, human, UniProt Q53F19 560-620, looked up)
chain: TKKVDHRAPGAEEDDSELQRAWGALIKEKEQSRQKKSRLDNLPSLQIEVSRESSSGSEAES
As for B7, the binding result with CBP20 (NCBP2), human is given as “binds”.

B8: His-MBP-PHAX^103-196 (domain or fragment, human, UniProt Q9H814 103-196, looked up)
chain: SQKPPVAGGKKINNIWGAVLQEQNQDAVATELGILGMEGTIDRSRQSETYNYLLAKKLRKESQEHTKDLDKELDEYMHGGKKMGSKEEENGQGH
In the case of B8, the Kd in data set [8] was 2400 nM.
Turning to ESAWERGLRHAKEVLKKATIRKEQEPDFEEKRFTVTIGEDER (domain or fragment, human, UniProt Q86VM9 298-339, looked up) [His-MBP-ZC3H18^298-339], the Kd in data set [10] was determined as 150 nM.

The values are drawn from doi:10.1101/2023.07.25.550453 (bioRxiv, 2023).
